Patent publication US11426447B2, “Neuregulin for the treatment of tumors of the nervous system” (LEIBNIZ-INSTITUT FUR …, priority 2016, dated 2022)

Experiments:
[1] = test system: neurofibromas; assay: Quantification of tumors in Nf1flox;Postn-Cre mice; format: in vivo; settings: intraperitoneal rhNRG1 for three months, vs saline
Description: (§1) PFA-fixed tissue blocks derived from rhNRG1 and control treated animals containing lower spinal cord, lumbar dorsal root ganglions (DRG) as well as distal nerve proportions were cut in 4 planes per animal. Photographs were subsequently scanned and analyzed using the NanoZoomer Digital Pathology Software. The total area occupied by peripheral nerve tissue and dorsal root ganglion (DRG) tissue in mm^2 was quantified separately. Likewise, neoplastic tissue regions were identified and quantified separately for peripheral nerves and DRG areas. All quantitative analyses of tumorlets in Nf2flox;Postn-Cre mice were performed in blinded manner.
Another closely related but not similar entity of Schwann cell tumors are neurofibromas. As opposed to schwannomas, Schwann cells represent the primary neoplastic cell component of neurofibromas (Stemmer-Rachamimov et al., 2004; Rodriguez et al., 2012), but also incorporate a mixture of non-neoplastic components, including axons, perineurial cells, fibroblasts and inflammatory cells. In order to test a possible effect of rhNRG1 treatment on these tumors, which are a typical manifestation of the hereditary disease Neurofibromatosis type 1 (NF1), 4-month-old mutant Nf1flox;Postn-Cre animals as well as wildtype littermates were either treated with saline control injections or intraperitoneal rhNRG1 administration for three months (FIG. 9A). […]

[2] = test system: tumorlets (neoplastic Schwann cell proliferation areas); assay: Quantification of tumorlets in Nf2flox;Postn-Cre mice; format: in vivo; settings: 20 μg rhNRG1 per kg bodyweight ip for three months, vs control animals
Description: as §1
The in vivo results on the efficacy of rhNRG1 on schwannoma growth was tested as described in Example 1 however in a another animal model of schwannoma disease, the well-established Nf2flox;Postn-Cre mouse line, wherein a conditional Nf2 gene deletion is facilitated by the Periostin-Cre driver line (Nf2flox;Postn-Cre).
In this model all animals spontaneously develop spinal, peripheral and cranial nerve schwannomas over time (Gehlhausen et al., 2015). 4-month-old mutant Nf2flox;Postn-Cre animals as well as their corresponding wildtype littermates were either treated with saline control injections or intraperitoneal rhNRG1 administration for three months (FIG. 8A). […]

[3] = in vivo; cited from earlier work
[4] = test system: ErbB2 and myelin protein zero (MPZ) expression; assay: Immunoblot of nerve tissue from Nf1flox;Postn-Cre mice; format: in vivo; settings: rhNRG1 over 3 months
Description: A, Study protocol used to assess the efficacy of systemic rhNRG1 treatment on schwannoma growth in Nf1flox;Postn-Cre animals. B, Representative longitudinal nerve section from six-month-old mutant Nf1flox;Postn-Cre mice indicating a circumscribed area of neurofibroma growth. Scale bars represent 50 μm. C, Fraction of tumor tissue within total tissue was quantified as area covered by tumor in relation to the total nerve area in investigated nerve sections. Nf1flox;Postn-Cre mutant mice receiving intraperitoneal saline injections (KO vehicle ip) were compared to mutants on rhNRG1 injections (KO rhNRG1 ip; n=6 animals per genotype; mean±SEM). D, Immunoblot of pooled tissue from at least three different animals prepared from sciatic nerves, brachial nerves, trigeminal nerves and dorsal root ganglions (DRG). Nf1flox;Postn-Cre mutant animals received either vehicle control injections (KO vehicle ip) or rhNRG1 treatment (KO rhNRG1 ip) over 3 months. Immunostaining for ErbB2, Akt, phospho-Akt (pAkt), c-Jun, Erk1/2, phospho-Erk1/2 (pErk1/2), myelin protein zero (MPZ), myelin basic protein (MBP) and GAPDH as loading control (n=3).
Immunoblotting was performed as described in (Morrison et al., 2001). […] Western blot results were quantified using Gel analysis software by ImageJ. […]

B1: rhNRG1: EGF domain containing 7 kDa protein of recombinant human Neuregulin 1, purchased from Reprokine (#RKQ02297) (protein, listed as Homo sapiens)
chain: SHLVKCAEKEKTFCVNGGECFMVKDLSNPSRYLCKCPNEFTGDRCQNYVMASFYKHLGIEF
In the case of B1, the “neurofibromas from distal parts of the nervous system (tumor fraction)” value [1] is given as “significant effect”, the “tumorlet fraction (area occupied by tumorlets relative to total nerve tissue area)” value [2] is given as “significant reduction” and the body weight [3] is given as “decrease in body weight”. The “ErbB2 expression (immunoblot)” value [4] was “reduced” and the “myelin protein zero (MPZ) expression (immunoblot)” value [4] was “increased”.
